Test [1] deals with T1, mono- and di-methylated lysine peptides (H4K20, p53K382 and other histone and non-histone peptides) (Homo sapiens, UniProt Q9Y468).
T1 construct: made in house; host or cells: E. coli
T1 sequence (Q9Y468 258-598): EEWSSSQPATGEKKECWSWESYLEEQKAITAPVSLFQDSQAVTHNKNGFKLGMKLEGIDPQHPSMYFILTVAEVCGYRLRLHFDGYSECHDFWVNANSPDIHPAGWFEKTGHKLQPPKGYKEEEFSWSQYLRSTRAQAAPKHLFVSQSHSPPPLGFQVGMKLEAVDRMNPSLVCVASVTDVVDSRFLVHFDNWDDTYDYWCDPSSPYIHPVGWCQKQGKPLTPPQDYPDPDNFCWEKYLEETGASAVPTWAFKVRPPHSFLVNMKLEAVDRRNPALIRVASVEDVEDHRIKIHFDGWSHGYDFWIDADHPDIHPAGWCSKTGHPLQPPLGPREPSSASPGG
The test is described as follows: Peptide pull-down assay with biotinylated peptides, Western blot. The class given is binding. The protocol: (§1) Peptide pull-down assays were performed as previously described (Shi et al. (2006) Nature 442, 96-99), using 1 μg protein and 1 μg peptide per condition in binding buffer (50 mM Tris pH 7.5, 150 mM NaCl, 0.05% NP-40). Peptide arrays were performed as previously described (Bua et al., supra).

The subject of test [2] is mono- and di-methylated lysine peptides (H4K20, p53K382 and other histone and non-histone peptides). The description is as above. The conditions noted are these: GST fusions, FIG. 1B. The class given is binding. The method, then: as §1
For test [3], the target named is T2, over 100 distinct histone and non-histone peptides with different post-translational modifications (Homo sapiens, UniProt Q9Y468).
T2 construct: made in house; host or cells: E. coli
T2 sequence (Q9Y468 258-598): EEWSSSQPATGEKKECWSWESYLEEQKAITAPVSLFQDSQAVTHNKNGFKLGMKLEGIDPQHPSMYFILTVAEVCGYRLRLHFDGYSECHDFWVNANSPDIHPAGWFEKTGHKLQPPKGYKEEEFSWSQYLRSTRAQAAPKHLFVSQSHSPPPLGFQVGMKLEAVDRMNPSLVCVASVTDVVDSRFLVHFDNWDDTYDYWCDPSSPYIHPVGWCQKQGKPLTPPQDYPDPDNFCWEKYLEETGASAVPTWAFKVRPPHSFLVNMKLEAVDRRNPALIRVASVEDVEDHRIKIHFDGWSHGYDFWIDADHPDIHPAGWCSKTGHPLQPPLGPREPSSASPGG
The test is described as follows: Peptide array probed with GST-3×MBT. The class given is binding. The note with it: FIG. 1E. The protocol:
as §1

Test [4] has as its system methylated histones (HeLa nucleosomes, calf thymus histones), p53K382me1, H3K9me2. Put plainly: Far Western assay. The class given is binding. The method, then: For Far Western assays, proteins were separated by SDS-PAGE and transferred to a PVDF membrane. Following blocking, membranes were incubated overnight with the indicated domain. Domain binding was determined using an epitope tag-specific antibody and appropriate HRP-conjugated secondary antibody.
For Far Western assays on purified HeLa nucleosomes and calf thymus histones, the indicated amounts of nucleosome or histone were separated by SDS-PAGE and transferred to a PVDF membrane. The membrane was blocked in milk prepared with Tris-buffered saline with 0.1% Tween (TBST). Membranes were incubated overnight at 4° C. with 1 μg/ml of the indicated domain in TBST. Domain binding was determined using an epitope tag-specific antibody and appropriate HRP-conjugated secondary antibody.
For the SET8/p53 Far Westerns, p53 was methylated in vitro as previously described (Kuo et al., 2011), with 5 μg enzyme and 1 μg substrate per 25 μl of reaction volume incubated at 30° C. overnight. Following the methylation reaction, PreScission Protease was added directly to the reaction mix and samples were incubated overnight at 4° C. Blotting was conducted as described above. G9a SET domain/recombinant H3 (New England BioLabs) samples were prepared similarly, without a GST cleavage step.

In test [5] the test system is methylated proteins (H3, p53, RelA, SIRT1) in HeLa / 293T nuclear extract. The test is described as follows: Protein pull-down from nuclear extract with GSH-Sepharose coupled domain, Western blot. The class given is binding. The method, then: GSH-Sepharose coupled domain beads were generated for pull-down by incubating GSHSepharose resin with E. coli lysate containing sufficient 3×MBT for bead saturation. Bead-coupled 3×MBT was incubated with nuclear extract overnight and proteins that precipitated with the resin were analyzed by SDS-PAGE.
Recombinant GST-SIRT1 was expressed by baculoviral transduction of the Sf9 insect cell line as previously described (Levy et al. (2011) Nat. Immunol. 12, 29-36). A panel of enzymes was tested for ability to methylate recombinant SIRT1 using ^3H-SAM in in vitro methylation reactions (Kuo et al. (2011) Mol. Cell 44, 609-620). SIRT1K622R was generated by site-directed mutagenesis (Stratagene). For the pull-down experiment, 293T cells were transfected with a 10:1 enzyme:substrate DNA ratio. 150 μg of nuclear proteins were used for pull-downs with 3×MBT or 3×MBTD355N coupled GSH-Sepharose as described above.
GSH-Sepharose coupled domain beads were prepared for pull-down by expressing the domain in E. coli. Cells were lysed as described, and lysate was incubated overnight at 4° C. with GSH-Sepharose with a sufficient lysate-to-Sepharose ratio to result in Sepharose binding saturation. The GSH-Sepharose was then washed 3×5 minutes in binding buffer and resuspended in binding buffer to 50% slurry. 150 μg of nuclear proteins were incubated overnight at 4° C. with 15 μl 50% slurry of either 3×MBT or 3×MBTD355N coupled to GSH-Sepharose in binding buffer (total volume of about 150 μl). Beads were washed 3×5 minutes in 0.5 ml of binding buffer. Beads were boiled in 25 μl of 2× Laemmli buffer and supernatant was analyzed by SDS-PAGE and Western blotting.
For SETD6/RelA and SET8/p53 pull-down experiments, 293T cells were transfected with a 1:1 enzyme:substrate DNA ratio. 150 μg of nuclear proteins were incubated overnight at 4° C. with 15 μl 50% slurry of either 3×MBT or 3×MBTD355N coupled to GSH-Sepharose in binding buffer. […] Laemmli buffer was added to the supernatant to 1×, and the resulting samples analyzed by SDS-PAGE and Western blotting.
A general note: In western blotting, separated proteins are transferred to a membrane and probed.

The next test has as its target T3, G9a SET domain (Homo sapiens, UniProt Q96KQ7).
T3 construct: 50 μg of GST or recombinant GSTtagged G9a SET domain and the cofactor SAM
The test is described as follows: ProtoArray on-chip in vitro methylation, detected with 3xFlag-3xMBT. The class given is biochemical. The conditions noted are these: ProtoArrays bearing 9,500 recombinant human proteins. The method, then: The assay was conducted as previously described (Levy et al. (2011) Epigenetics Chromatin 4, 19). Briefly, a ProtoArray (Invitrogen, version 5.0) was incubated overnight with 50 μg of GST or recombinant GSTtagged G9a SET domain and the cofactor SAM.
Arrays were analyzed using GenePix Pro 6.1 software (Molecular Devices) and feature values were assigned to proteins using the array list provided by Invitrogen. We designated the following criteria for “hits”: GST array signal-to-noise ratio (SNR) less than or equal to 1.5, G9a array SNR greater than or equal to 10, and a difference between the G9a array SNR and the GST array SNR of greater than or equal to 12. Hits were individually visually validated. Proteins were removed from the list of potential substrates if irregular array features appeared to interfere with the array spots or SNR calculations.

T3 sequence (Q96KQ7 1038-1155 limits assumed): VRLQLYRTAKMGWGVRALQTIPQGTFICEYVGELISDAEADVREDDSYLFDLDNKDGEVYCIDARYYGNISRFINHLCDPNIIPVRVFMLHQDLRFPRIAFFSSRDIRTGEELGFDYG

B1: 3×MBT: three MBT repeats of L3MBTL1 (amino acids 190-530 of accession NP—056293.4), expressed as GST or Flag fusion; methyl-lysine affinity reagent (protein)
chain: EEWSSSQPATGEKKECWSWESYLEEQKAITAPVSLFQDSQAVTHNKNGFKLGMKLEGIDPQHPSMYFILTVAEVCGYRLRLHFDGYSECHDFWVNANSPDIHPAGWFEKTGHKLQPPKGYKEEEFSWSQYLRSTRAQAAPKHLFVSQSHSPPPLGFQVGMKLEAVDRMNPSLVCVASVTDVVDSRFLVHFDNWDDTYDYWCDPSSPYIHPVGWCQKQGKPLTPPQDYPDPDNFCWEKYLEETGASAVPTWAFKVRPPHSFLVNMKLEAVDRRNPALIRVASVEDVEDHRIKIHFDGWSHGYDFWIDADHPDIHPAGWCSKTGHPLQPPLGPREPSSASPGG
modifications: left off: a dimerising Fc or GST
Turning to B1, in test [1] (FIG. 1D), the “binding to non-methylated peptides” value is on record as “does not bind” and the “binding to tri-methylated peptides” value is “binds very weakly”. Moreover, the “effect of acetylation of a neighboring lysine and phosphorylation of an N-terminally adjacent serine on binding” value in test [1] (FIG. 2E) is “did not affect”. In test [1] (FIGS. 2A and 2B), the “effect of phosphorylation on a C-terminally adjacent serine on binding to mono- or di-methylated lysine” value is “decreased, but did not eliminate”. In addition, the “effect of arginine methylation one or two residues removed from the lysine methylation site on binding” value in test [1] (FIGS. 2C and 2D) is given as “little effect”. Besides, in test [1] (histone and nonhistone peptides, FIG. 1C), the “co-precipitation with panel of mono- and di-methylated peptides” value is “co-precipitates with thirteen different mono- and di-methylated peptides”. Besides, the “binding to mono- and di-methylated H4K20- and p53K382-containing peptides” value in test [2] was “binds”. The “binding to unmodified peptides, tri-methylated lysine peptides or peptides with other PTMs on peptide array” value in test [3] was “did not bind”. Moreover, the “number of peptides containing mono- and di-methylated lysine bound on peptide array” value in test [3] (array of over 100 unique peptides) is 41. In addition, in test [4], the “Far Western detection of recombinant H3 dimethylated at lysine 9 (H3K9me2) by G9a SET domain” value was “specifically detects” and the “Far Western detection of recombinant p53 mono-methylated at lysine 382 by SET8” value is listed as “detected”. Besides, in test [4] (purified HeLa nucleosomes and calf thymus histones), the “Far Western detection of histones” value is reported as “detected”. Besides, the “precipitation of 3× Flag-SIRT1” value in test [5] (293T cells, only when G9a is co-expressed and K622 is intact) is listed as “specifically precipitated”. In addition, in test [5] (HeLa nuclear extract), the “precipitation of methylated proteins H3 and p53” value is recorded as “precipitates”. The “precipitation of methylated RelA” value in test [5] (nuclear extract of 293T cells co-expressing SETD6 and RelA) was “precipitates”. Further, in the test with G9a SET domain, the “number of proteins detected on the G9a-methylated array but not on the control array” value came to 112.

These data come from patent publication US20140274782A1, “AFFINITY REAGENTS AND METHODS FOR DETECTION, PURIFICATION, AND PROTEOMIC ANALYSIS OF METHYLATED PROTEINS” (The Board of Trustees of the Leland Stanford Junior …, priority 2013, published 2014).
